Here are results for 4 molecules from patent US6368863, “Reagents and methods for modulating gene expression through RNA mimicry” (ISIS Pharmaceuticals Inc.).

What all share (details): protein: synthetic; tags: synthetic 39-mer peptide made by solid phase synthesis, UCSF Biotechnology Resource Core; label: 5'-32P; hairpin with bulge
The target of series [1] is T1, Tat39 (Tat3B; HIV Tat residues 48-86) (HIV-1, UniProt P04608 P04608:48-86).
T1 chain: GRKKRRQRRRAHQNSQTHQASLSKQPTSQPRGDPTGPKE
Kind of series: EMSA; 5 pM oligo; 1:1 Kd; Krel 4. Background: A gel shift assay detects complexes by their altered migration in electrophoresis.

For series [2], the target named is T1, Tat39 (Tat3B; HIV Tat residues 48-86). As to the kind of experiment: EMSA; 50 pM oligo; 1:1 Kd; 2-3:1 Kd 8000-20000 nM; Krel 10.
Series [3] has the same target. As to the kind of experiment: EMSA; 1:1 Kd; 2-3:1 Kd 200 nM; 10 mM Tris pH 7.5, 70 mM NaCl, 4 C.
Series [4] shares this target. As to the kind of experiment: EMSA; 1:1 Kd; 2-3:1 Kd 30 nM; Krel 4.
Series [5] has the same target. Kind of series: EMSA; 1:1 Kd; Krel 1.

What is called Kd is a measure of binding affinity in units of concentration. A low value points to higher affinity.

As to GCCAGAUCUGAGCCUGGGAGCUCUCUGGC (XNA, 2'-OMe, PS) [2'-OMe, P=S delta-TAR #2195 29-mer (16-45(-A17))], the Kd in series [1] is less than 10 nM; in series [2], 4 nM.

B1: TAR 59-mer (1-59) (ssRNA)
RNA: GGGUCUCUCUGGUUAGACCAGAUCUGAGCCUGGGAGCUCUCUGGCUAACUAGGGAACCC
In series [3], B1 came in with a Kd of 40 nM.

B2: A:P=S TAR 59-mer (1-59) (ssRNA)
RNA: B1 RNA
modifications: PS linkages at A residues
In the case of B2, in series [4], the Kd was less than 10 nM.

B3: 5-BrU TAR 59-mer (1-59) (ssRNA)
RNA: B1 RNA
modifications: 5-bromouridine in place of U
In series [5], B3 returned a Kd of 40 nM.
